The Kd is the constant that tells how readily two partners part at equilibrium. The low end stands for higher affinity, the high end for lower affinity.

These results are taken from article PMC7872222.

The test has as its target biotinylated FYCO1 peptide (human). The test can be described thus: BLI. (In general: Biolayer interferometry detects binding as a change in optical thickness at a sensor tip.)

For “GABARAP (from UniProt O95166 1-117) (natural protein)”, the Kd was 1.4 µM.
